Measured values reported in PMC5876331, “RING tetramerization is required for nuclear body biogenesis and PML sumoylation” (Nature Communications, 2018).
Where “and” joins values, the source holds several entries; their conditions need not be identical. Equal values may be shown once.

How the values were obtained:
[1] = target: the molecule itself; test: AUC; sedimentation velocity, 200,000g, 25 °C, 20 mM Tris, 100 mM NaCl, pH 8.0, with/without 1 mM DTT; 1 mg ml^-1 (wild type also 5 mg ml^-1); SEDFIT c(s)
[2] = target: the molecule itself; test: crystal structure; PML RING49-104 crystallised at 26 mg ml^-1, 500 mM ammonium sulfate, 1 M lithium sulfate, 100 mM sodium citrate, 4 °C; 1.6 Å, Zn SAD; 4 molecules per ASU
[3] = target: the molecule itself; test: SEC-MALS; pooled gel filtration peaks of PML RING1-119 re-analysed on WTC-015S5 column, 40 μl injection, 0.5 ml min^-1, DAWN HELEOS-II MALS

B1: PML RING49-104 domain (amino acids 49-104), wild type (domain or fragment, UniProt P29590 49-104, looked up)
chain: EEEFQFLRCQQCQAEAKCPKLLPCLHTLCSGCLEASGMQCPICQAPWPLGADTPAL
notes: PML (promyelocytic leukemia protein), RING domain, amino acids 49-104; residues 51-97 visible in the electron density map; Two Zn ions per subunit; not shown: His6, N-terminal, cleaved
[1]
  stoichiometry N: 2
[2]
  stoichiometry N: 4

B2: PML RING1-119 (amino acids 1-119), wild type (domain or fragment, UniProt P29590 1-119, looked up)
chain: MEPAPARSPRPQQDPARPQEPTMPPPETPSEGRQPSPSPSPTERAPASEEEFQFLRCQQCQAEAKCPKLLPCLHTLCSGCLEASGMQCPICQAPWPLGADTPALDNVFFESLQRRLSVY
notes: PML, amino acids 1-119 (extended RING); theoretical molecular weight 13.1 kDa; also called extended RING; long version of PML RING; not shown: His6, N-terminal, cleaved
[3]
  stoichiometry N: 4 and 2
